The values that follow come from PMC11561318 (Nature Communications, 2024).

Experiment [1] has as its target LgBiT-PP1α^WT (human, UniProt P62136 1-330). The experiment can be described thus: split reporter.
For experiment [2], the target named is LgBiT-PP1α^ΔC (human, UniProt P62136 1-298). The experiment can be described thus: split reporter.
Experiment [3] addresses His-tagged NanoLuc-PP1α-HaloTag sensor (PP1-WT) (human, UniProt P62136 1-330, NanoBRET 618 ligand on the HaloTag). The experiment is described as follows: FRET or BRET. (BRET reads energy transfer from a luciferase to a nearby fluorophore.)

Sequence of His-tagged NanoLuc-PP1α-HaloTag sensor (PP1-WT) (P62136 whole entry): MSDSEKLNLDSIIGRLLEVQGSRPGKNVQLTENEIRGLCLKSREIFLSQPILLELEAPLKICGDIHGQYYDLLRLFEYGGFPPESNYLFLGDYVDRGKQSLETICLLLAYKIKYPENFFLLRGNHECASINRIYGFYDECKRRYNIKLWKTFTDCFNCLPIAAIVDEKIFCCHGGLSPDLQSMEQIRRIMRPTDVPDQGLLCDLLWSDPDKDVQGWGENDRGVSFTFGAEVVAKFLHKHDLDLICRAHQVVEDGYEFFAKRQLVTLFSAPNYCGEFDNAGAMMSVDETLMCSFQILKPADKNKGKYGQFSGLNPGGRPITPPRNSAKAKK
Sequence of LgBiT-PP1α^WT (P62136 whole entry): as above
Sequence of LgBiT-PP1α^ΔC (P62136 1-298, stated change not applied): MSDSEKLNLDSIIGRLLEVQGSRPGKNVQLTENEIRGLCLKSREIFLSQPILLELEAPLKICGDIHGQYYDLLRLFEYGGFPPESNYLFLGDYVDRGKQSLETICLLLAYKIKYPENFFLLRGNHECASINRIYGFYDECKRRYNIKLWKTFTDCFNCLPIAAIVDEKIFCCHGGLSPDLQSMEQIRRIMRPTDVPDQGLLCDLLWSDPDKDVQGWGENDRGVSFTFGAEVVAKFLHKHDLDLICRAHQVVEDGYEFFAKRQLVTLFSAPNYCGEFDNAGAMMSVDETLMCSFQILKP

B1: HIS-R2-WT (natural protein)
chain: MAASTASHRPIKGILKNKTSTTSSMVASAEQPRGNVDEELSKKSQKWDEMNILATYHPADKDYGLMKIDEPSTPYHSMMGDDEDACSDTEATEAMAPDILARKLAAAEGLEPKYRIQEQESSGEEDSDLSPEEREKKRQFEMKRKLHYNEGLNIKLARQLISKDLHDDDEDEEMLETADGESMNTEESNQGSTPSDQQQNKLRSS
As to B1, the binding result in experiment [1], in experiment [2] and in experiment [3] was “binds” each time.

B2: HIS-ASPP1-(867–1090) (domain or fragment)
chain: RTNLKKPNSERTGHGLRVRFNPLALLLDASLEGEFDLVQRIIYEVEDPSKPNDEGITPLHNAVCAGHHHIVKFLLDFGVNVNAADSDGWTPLHCAASCNSVHLCKQLVESGAAIFASTISDIETAADKCEEMEEGYIQCSQFLYGVQEKLGVMNKGVAYALWDYEAQNSDELSFHEGDALTILRRKDESETEWWWARLGDREGYVPKNLLGLYPRIKPRQRTLA
As for B2, the binding result in experiment [3] is recorded as “binds”.
